{"source": "paper PMC7183857", "test_in_all_cases": "co-sedimentation", "key": {"[1]": {"molecular_target": "A14C/E45C disulfide-crosslinked CA tubes (HIV-1)"}, "[2]": {"molecular_target": "CA_(14C/45C/E213A) tubes (HIV-1)"}, "[3]": {"molecular_target": "CA_(14C/45C/E75A) tubes (HIV-1)"}, "[4]": {"molecular_target": "A14C/E45C disulfide-crosslinked CA tubes (HIV-1)", "remark": "listed apart in the source"}, "[5]": {"molecular_target": "CA_(14C/45C/E71A) tubes (HIV-1)"}}, "note": "Like-named read-outs stand apart in the source and are kept apart here."}
{"substance": "MxB_(1–35)-MBPdi (from UniProt P20592 1-35)", "values": [{"measurement": "percent binding", "setting": "[1]", "value": 20, "unit": "%"}, {"measurement": "binding as percent of WT CA tubes", "setting": "[2]", "value": "40 % of WT"}, {"measurement": "binding as percent of WT CA tubes", "setting": "[3]", "value": "60 % of WT"}, {"measurement": "percent binding", "setting": "[4]", "value": 80, "unit": "%"}, {"measurement": "percent bound", "setting": "[4]", "value": "> 90", "unit": "%"}, {"measurement": "percent co-pelleted", "setting": "[4]", "value": "> 90", "unit": "%"}, {"measurement": "binding as percent of WT CA tubes", "setting": "[5]", "value": "60 % of WT"}]}
